The nature of this data set: soluble on expression in E. coli; label from the status in PepcDB or PDB records.
Take “MGHHHHHHSHEELGLKVGLEIHRQLDTKKLFSPVPTKFSDEVDFTFQRRLRPTMSELGEVDPAALEEFKKGRVFIYEGNYQLTDLVYMDEEPPRGPDKEALEVALQIAYLLNAKPVDEVYYMRKIVIDGSNVSGFQRTAIIATDGKVETPWGTVGIPTICLEEDAARIIERKEKEVIYRLDRLGVPLVEISTTPDIHHPEQAKVVAKFIGDALRATRKVKRGLGTIRQDLNVSIKGGARIEIKGVQELDMIPLIIEREVERQLNLLKIR”: the “soluble on expression in E. coli” value is “not soluble”. As for “KHDGIPAECTTIYNRGEHTSGMYAIRPSNSQVFHVYCDVISGSPWTLIQHRIDGSQNFNETWENYKYGFGRLDGEFWLGLEKIYSIVKQSNYVLRIELEDWKDNKHYIEYSFYLGNHETNYTLHLVAITGNVPNAIPENKDLVFSTWDHKAKGHFNCPEGYSGGWWWHDECGENNLNGKYNKPRAKSKPERRRGLSWKSQNGRLYSIKSTKMLIHPTDSESFE”, the entry is “soluble”. For “MGFLWKTAKLGIKVGLVAGAVKLSIDNDIWSTNNVKGSELYQKLKKYILPGTVVFPEQLPTVEDVQLKAGGKWNSAVDSVFTTIENVPSSVNTVANRLINNK”, the “soluble on expression in E. coli” value was “not soluble”. Take “MKMYEVKEFSSGKRKLEDYKSIIGEEEVSKIQEKAEKLKGRSFVHVNSTSFGGGVAEILHSLVPLLRSIGIEARWFVIEGPTEFFNVTKTFHNALQGNESLKLTEEMKELYLNVNRENSKFIDLSSFDYVLVHDPQPAALIEFYEKKSPWLWRCHIDLSSPNREFWEFLRRFVEKYDRYIFHLPEYVQPELDRNKAVIMPPSIDPLSEKNVELKQTEILRILERFDVDPEKPIITQVSRFDPWKGIFDVIEIYRKVKEKIPGVQLLLVGVMAHDDPEGWIYFEKTLRKIGEDYDVKVLTNLIGVHAREVNAFQRASDVILQMSIREGFGLTVTEAMWKGKPVIGRAVGGIKFQIVDGETGFLVRDANEAVEKVLYLLKHPEVSKEMGAKAKERVRKNFIITKHMERYLDILNSLGGLEHHHHHH”: the “soluble on expression in E. coli” value is reported as “soluble”.

“MSLSSKKLGVILYGPPASGKDTVAQALSELDARYGQFARLKVGSGRTTRYRMGTAEQLHDLEAAGAAIYTNSRYGNTYVIDRPGMDSAFEAGVPVVHLGQIDGIRALVDGYTADWAVVLLWCSQEVTAQRSAGRGDSDTTARLAAWQATREDLDAHPDMRWDLTVDTEATAAEESARLIDQLLHARAGVTEGHHHHHH”: the “soluble on expression in E. coli” value is given as “soluble”. Next, “MGLLDLIGRKRARDKPQNSYEGQDFSYLFGRTTSGENVDEFKTMQTTAVYACVRVLAEAVASLPIHIYERTENGKEKKLDHPLYFLLHDEPNPEMSSFIFRETIMSHLLIWGNAYVQIIRDKSGMVSLLLKQKASVLIRKLLLIIWQRMP”: “not soluble”; “MSEGSNVLVSIILVNYNGADILPDCLNSIDKFISKDNCEILLVDNASQDNSYELVAQDFPDVKIVRLPKNYGFGAGNNAGAKIAKGKFLLLLNTDTILTTNILPHLIDLMRENPDVGIIGTKLVFPDETFQISFAYTIGIKGEYKSRKLHEYAEDKSKLNSLEQEFNTIKEVDIVVGAALFIRADLFHSVGGFDEKFFIYFEDADLCRRVQNQGYKILYTPQVSLIHIRGHSMKKNANATVLEHHHHHH”: “not soluble”; “MGSDKIHHHHHHADLQSNFLKMLVTQMNNQDPLNPMDNAQLTSQLAQISTVSSMQTMNSTLTQLLNQTSASRAMDSAALIGRTVMVPGSQFSVKDGVAGQFGVDLPSTADAVTVNVLDAHGNVVRTIDMKGQTAGVHDIAWDGKNDAGVAVADGDYSFKVSATANGTSVQPVALVYGKVNSISGDSSGVLVDVGNGQQANVDDVRRIL”: “not soluble”. Consider “MSLGSMGFIESEVAVVYGRIVEGFRAPYKEDLYFKTVIVPGFSDGHMHTQVVDAGLEPSRVWSNSYEWLETRRLRVDEAAVRSDLDLSSRLAAAAFSRSLLEGVTLVAATGRLSANVRGWLSLTSRPRAIFLPTVMDRAGWPSIREVEVEIERLEGLLRDGLAKIGVFVHSLGTAKPESVRRALQTAARRRSIMGMHLSEGLPEAGRLVDVLGRGPYPARIVAVHCMEVEDLPTGVRCVSCPASNQILYRRTRPTLEGVDGFGSDWPLLIGTIARHLPLINKLYPGRLQEILYKATIGGYRAYLALHDGDFVAYDASLEDVLAGRALPVWVSVAGKPAVVEGRLSGSGYGYGEVLSIIRRLIKEALEKHGDGSLPYIPDVESMYEASLALEGGPRSEGHHHHHH”, for which the “soluble on expression in E. coli” value was “not soluble”. For the sequence “SGSSEDQAYRLLNDYANGFMVSQVLFAACELGVFDLLAEAPGPLDVAAVAAGVRASAHGTELLLDICVSLKLLKVETRGGKAFYRNTELSSDYLTTVSPTSQCSMLKYMGRTSYRCWGHLADAVREGRNQYLETFGVPAEELFTAIYRSEGERLQFMQALQEVWSVNGRSVLTAFDLSVFPLMCDLGGDFFKDPLPEADLYILARVLHDWADGKCSHLLERIYHTCKPGGGILVIESLLDEDRRGPLLTQLYSLNMLVQTEGQERTPTHYHMLLSSAGFRDFQFKKTGAIYDAILARK”, the “soluble on expression in E. coli” value is reported as “soluble”. Next, “MKKSLIAFILIFMLVLSGCGMKDNDKQGSNDNGSSKSPYHRIVSLMPSNTEILYELGLGKYIVGVSTVDDYPKDVKKGKKQFDALNLNKEELLKAKPDLILAHESQKATANKVLSSLEKQGIKVVYVKDAQSIDETYNTFKQIGKLTHHDKQAEQLVEETKDNIDKVIDSIPAHHKKSKVFIEVSSKPEIYTAGKHTFFNDMLEKLEAQNVYSDINGWNPVTKESIIKKNPDILISTEAKTRSDYMDIIKKRGGFNKINAVKNTRIEVVNGDEVSRPGPRIDEGLKELRDAIYRK”: “not soluble”; “IPVDLTWDLEAIFSTDEEWEKEFNEVKGLIPSLVQFKGKLSQSAEILYAALQQQDEITERLGRLYTYAHMRYDQDTTNSFYQGLNDRAQTLASQVGQAASFVVPELMSIEKEKIDTFLNEHEPLTLYRHMLDELNKQRPHVLSEAEESILAQASEVTSAPSNTFGMLNNADMTFPTIVNENGEEVEVTHGRYL”: “soluble”. As for “MERIIQQTDYDALSCKLAAISVGYLPSSGLQRLSVDLSKKYTEWHRSYLITLKKFSRRAFGKVDKAMRSSFPVMNYGTYLRTVGIDAAILEFLVANEKVQVVNLGCGSDLRMLPLLQMFPHLAYVDIDYNESVELKNSILRESEILRISLGLSKEDTAKSPFLIDQGRYKLAACDLNDITETTRLLDVCTKREIPTIVISECLLCYMHNNESQLLINTIMSKFSHGLWISYDPIGGSQPNDRFGAIMQSNLKESRNLEMPTLMTYNSKEKYASRWSAAPNVIVNDMWEIFNAQIPESERKRLRSLQFLDELEELKVMQTHYILMKAQWHHHHHH”, the entry is “soluble”; as for “AIRVADLLQHITQMKCAEGYGFKEEYESFFEGQSAPWDSAKKDENRMKNRYGNIIAYDHSRVRLQTIEGDTNSDYINGNYIDGYHRPNHYIATQGPMQETIYDFWRMVWHENTASIIMVTNLVEVGRVKCCKYWPDDTEIYKDIKVTLIETELLAEYVIRTFAVEKRGVHEIREIRQFHFTGWPDHGVPYHATGLLGFVRQVKSKSPPSAGPLVVHCSAGAGRTGCFIVIDIMLDMAEREGVVDIYNCVRELRSRRVNMVQTEEQYVFIHDAILEACL”, “soluble”. Turning to “MVQWSPFVMSFKKKYPWIQLAGHAGSFKAAANGRILKKHCESEQRCLDRLMADVLRPFVPAYHGDVVKDGERYNQMDDLLADFDSPCVMDCKMGVRTYLEEELTKARKKPSLRKDMYQKMVEVDPEAPTEEEKAQRAVTKPRYMQWRETISSTATLGFRIEGIKKEDGSVNRDFKKTKTREQVTEAFREFTKGNQNILIAYRDRLKAIRATLEISPFFKCHEVIGSSLLFIHDKKEQAKVWMIDFGKTTPLPEGQTLQHDVPWQEGNREDGYLSGLDNLIDILTEMSQG”, the “soluble on expression in E. coli” value is recorded as “soluble”. Take “MHAGEAVQQLKKAFETVASFDFRDALSKASTPVTVVATNGPFGLAGLTCSAVCSVCDRPPTVLLCINRKSYAAGIIKSNGVLSVNWLAAGQAVISQTFAGVGSVPMEERFADKGWQTIATGAPYRMDAAVSFDCTIANIVDVGSHSVIFAEVVARNHAEECTPLIYHRRQYATTRSLAEHHHHHH”: the “soluble on expression in E. coli” value is reported as “soluble”. Regarding “MSNFSEGEIFIANIEKKSLECRENDEIVVLKICELCNIIYPIFNKIFGNGFVGDTLKKDLKNSSSQVQRAIEKFPEETKYVSMLYSYNINKYENMEKLKRDLDNGIISFLWMKRTLEFIITFLEKCYITCSETKLSICAQEAYNEVLKKYHGFITSKIVKLCLKLSPTKDILTKKLGFQTHQQASTVLQKCLSITKPLVRDISVTIEKFNCDFEEKI”, the “soluble on expression in E. coli” value was “not soluble”.

With “MSCIAAIAAAEGTGSRMAYVSLPRRLVTLLMISTVMVSCSAEGLVPPAEVDGTTRVSAIRSSRQQGYSAPSGAVNQVERAGQGADYPSTMSQPMPEPYASQDPLLQSPQAGQGYSTLDSQHQARMAASGHTNMPAQPMQSQTMQSQTMQAQTMQAQTMPGQQLASNQNAEGEGGVNMDSMLGVEPVRGLAEEQDADIAEGASAQPVVDGIGTDNPVAVSPPRRQQGASQSRLIPPPPVGSSSRRQPVEEVAMLMPNDPMAGGPMQSNRSMPPGVMPSSEVACRSELRRLGVAFRDVARIADGPTCGIDYPIELSGLASGVAIRPAVKLNCQVTLAFAKWVKFELVPSSRFRYLSGVGRITPMGGYSCRKMNSRSSNPWSEHARGNAIDIGTITLKNGKEIDVRSKSFFAFREKALLKAVRSDSCKYFSTVLGPGSDPNHWNHFHFDLRTRKSGYRHCD”, the “soluble on expression in E. coli” value is “not soluble”. On to “MVSFTKDQIADIIRKVGDGTSPEALESAVRNVLAKLQSEGLSAPASQGGKLDASSYPLGIKRKDLVKSATGLGLDDITIEKVVSGEIQFDDIKTRPETLAYQNEIAKSVNRPNLANNLARAGEMTRIPDARLLEMYNFLRPYRAAKQEMISMAEELEQKYQAPACAKLVREAADVYEKNNRLKGDR”, for which the “soluble on expression in E. coli” value is listed as “not soluble”.

On to “MALGPLVTGLYDVQAFKFGDFVLKSGLSSPIYIDLRGIVSRPRLLSQVADILFQTAQNAGISFDTVCGVPYTALPLATVICSTNQIPMLIRRKETKDYGTKRLVEGTINPGETCLIIEDVVTSGSSVLETVEVLQKEGLKVTDAIVLLDREQGGKDKLQAHGIRLHSVCTLSKMLEILEQQKKVDAETVGRVKRFIQEAHHHHHH”, for which the “soluble on expression in E. coli” value is reported as “soluble”. Next, “MIKISTRFDAGSVVVKDLTDPSNIRLALRPDNASDFAQWFYFRLQGAAYQNCIMHFENAAEAAYPKGWEGYQACASYDRRNWFRVPTSYENGVLTVNHTPLSNSVYYAYFEPYSEEQHLNLLGDAQGSGLCRIDDLGSTVQGRDINLLTIGNQVESDLKIWITARQHPGETMAEWFIEGLLGRLLDPQDPTARALLDRATFYIVPNMNPDGSALGNLRTNAAGANLNREWENPTVEKSPEVFFVREKMLETGVDLFLDIHGDEGLPFVFVAGTEGVPNYNPRIAALEAQFKNALLNASPDFQDEYGYEKDAPGEANMTLATNWVGNRFNCLAYTLEMPFKDNANLPDDDFGWNGQRSLRLGEAALSAILNVIGDLR”: “not soluble”; “MLYLHDVWVNWFEGEENGYNVCHFYEWRKDDTIELLDQVPLLKVDATLYHYIENELLELPQKMLKTYIIRLIFVKIMNVCSKSIALLLQNGKGIIAIDTIGYNVPIRKSRLIPRQEQMVYEMVENVQAEKYEFQVEETEKEHHILSPSPFIMNGLTRKERQLKQLLFMALDQLHTTKNTAEIRYWFTEWDPSAYGMVQHMEFEDIWAKLYDEAKTGWSDKHEQLCERLVKGQPFFEKLWEMENEQKVN”: “not soluble”; “MYFVDRSKIEKTLGFFEHQLALFDSQTDWQSEIGELALQRIGHLLIECILDTGNDMIDGFIMRDPGSYDDIMDILVDEKVVTEKEGDELKKLIAYRKTLVQQYLLADSGELYRLIKAHQTALQDFPKRIRSYLETELGPVSAFKLEHHHHHH”: “soluble”.

For the origin of these results see the DeepSol protein solubility set.
